The nanobody polyreactivity screen of Harvey et al. (2022)

Experiment: yeast display, Sf9 membrane polyspecificity reagent, FACS + sequencing; frameworks hold sequencing errors
In short: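 Nanobodies came from a synthetic yeast display library in Saccharomyces cerevisiae BJ5465, induced with galactose for 36–48 hours and stained for 1 hour at 4 °C with 10% biotinylated, detergent-solubilized Sf9 membrane reagent. Cells were enriched on streptavidin microbeads and then FACS-sorted, with low and high (top ~1%) gates set on anti-HA fluorescence for expression and streptavidin fluorescence for reagent binding. Each polyreactivity label reflects the gate a clone came from. Genes were amplified by colony PCR, sequenced by MiSeq 2 × 250 and filtered by CDR length.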

| Sequence | polyreactivity (PSR sort gate) |
| --- | --- |
| QVQLVESGGGLVQAGGSLRLSCAPSGGTIAPYAMGWYRQASGKESELDATISNSGTSTNYADSVKGRFTISRDNAKNTVYLQMNSLKPEDTAVYYCAKRYHQYRWRGWLWGFDYWGQGTQVTVLS | high polyreactivity |
| QVQLVESGGGLVQAGGSLRLSCAASGLTFQYNAMGWYRQAPGKERELVAANSRSGGRTYYADSVKGRFTISRDNAKNTVYLQLNSLKPEDTAVYYCAARDRSTRSDLTSYSVLYGNYYWGQGTQVTVSS | high polyreactivity |
| QVQLVESGGGLVQAGGSLRLSCAASGFIFPRNVMGWYRQAPGKERELVAAISRSGGSTYYADSVKGRITISRDNAKNTVYLQMNSLKPEDTAVYYCDKRTFYNGEYWGQGTQVTVSS | high polyreactivity |
| QVQLVESGGGLVQAGGSLRLSCAASGRIFNYYDMGWYRQPPGKERELVAAISWRGTSTRYADSVKGRFTISRDNAKNTVYLQMNSLKPEDTAVYYCADDDYARRFSFKYDYWGQGTQVTVSS | high polyreactivity |
| QVQLVESGGGLVQAGGSLRLSCAASGSTFFRYAMGWYRQAPGKEREFVAAISKRGGSTHYADSVQGRFTLSRDNAKNTVYLQMNSLKPEHTAVYYCAASSFTSSYNYWGQGTQVTVSS | high polyreactivity |
| QVQLVESGGGLVQAGGSLRLSCSASGSILSAYDMGWYRQATGKERELVAAIDSSGGSTYYADSVKGRFTISRDNAKNTVYLQMNSLKPEDTAVYYCAATSLAGYYKFDYWGQGSQVTVSS | low polyreactivity |
| QVQLVESGGGLVQAGGSLRLSCAASGSTFQPYAMGWYRPAPGKERELVAAIRYSGGITYYADSVKGRFTISRDNAKNSVYLQMNSLKPEDTAVYYCAAYGFYGGDYWGQGTQVTVSS | high polyreactivity |
| QVQLVESGGGLVQAGGSLRLSCAASVNTFYGYDMGWYRQAPGKEWELVASITLSGDSTYYADSVKGRFTISRDNEKNTVYLQMNSLKPEDTAVYYCAGVYTYPLGYYHYTYAYWGQGTQVTVSS | low polyreactivity |
| QVQLVESGGGLVQAGGSLRLSCAASGFTLARNAMVWYRQAPGKERELVAANSWSGGTTYYADSVKGSFTISRDNAKNTVYLQMNSLKPEDTAVYYCNTASWRAQYYYWGQGNQVTVSS | high polyreactivity |
| QVQLVESGGGLVQAGGSLRLSCAASGSIFAYYAMGGYRQAPGKEREFVAAISKRGGRTYYADSVKGRFTISRDNAKNTVYLQMNSLKPEDTAVYYCAAPWAYPRSGGDYWGQGTQVTVSS | high polyreactivity |
| QVQLEESGGGLVQAGGSLRLSCAASGRTFSRNAMGWYIQAPGKERELVAAISQRGVSTYYADSVKGRFTISRDNAMNTVYLQMNSLKPEDTAVYYCNTRGTYRYDYWGQGTQVTVSS | low polyreactivity |
| QVQLVESGGGLVQAGGSLRLSCAASGSIFYRYAMGWYRQAPGKERELVATISSGGRTYYADSVKGRFTISRDNAKNTVYLQMNSLKPEVTAVYYCAAKRFSSPYWEYYWGQGTQVTVSS | high polyreactivity |
| QVQLVESGGGLVQAGGSLRLSCAASGYIFRLNAMGWYRQAAGKERELLAGISTGGRTNYADSVKGRFTISRDNAKNTVNLQMNSLTPEDTAVYYCAAAWHTASWVGSDSLGGGYWGQGTQVTVSS | low polyreactivity |
| QFQLVESGGGLVQAGGSLRLSCAAYGSIFMYYAMGWYIQAPGKERELVAAIRRGGNTNYADSVKGRFTISRDNAKNTVYLQMNSLKPEDTAVYYCAAAQYSRYSRVPNYYAGTYYYWGQGTQVTVSS | low polyreactivity |
| QVQLVESGGGLVQAGGSLRLSCAASGITLRRNTMGWDRQAPGKERELVAAITRSGGSTYYADSVKGRFTISRDNAKNTVYLQMNSLKPEDTAVYYCAKGPSYGGPSHDYWGQGTQVTVSS | high polyreactivity |
| QVQLVESGGALVQAGGSLRLSCAASGSIFPANPMGWYRQAPGKEWEFVAAINWSTGTTYYADSVKGRFTISRDNGKNTVYLQMNSLKPEDTAVYYFNASDQAKYDYWGQGTQVTVSS | low polyreactivity |
| QVQLVESGGGLVQAGGSLRLSCAASGRTFGVYVMGWYRQAPGKERELVAAIRIGDSTNYADSVKGRFTISRDNAKNTVYLQMNSLKPEDTAVYYCNAYRVRYTVDSVFYGYDYWGQGTQVTVSS | high polyreactivity |
| QVQLEESGGGLVQAGGSLRLSCAASGSTFGWYAMGWYRQAPGKERELVASITSGGRTNYADSVKGRFTISRDNAKNTVYLQMNCLKPEDTAVYYCAKRVYGSNSLYDYWGQGTQVTVTS | low polyreactivity |
| QVQLEESGGGLVQAGGSLRLSCAASGIIFKLYAMGWYRQAPGKERELVAAITYRGGTTYYADSVKGRFTISRDNAKNTDYLQMNSLKPEDTAVYYCAVAVTSYSSKKLYYWGQGTQVTVSS | low polyreactivity |
| QVQLVESGGGLVQAGGSLRLSCAASGRTFYGYVMGWYRQAPGQERELVAAISRSVGSTYYADSVKGRFTISRDNAKNTVYLQMNSLKPEDTAVYYCATSVYGGVDYWGQGTQVTVSS | high polyreactivity |
| QVQLVDSGGGLLQAGASLRLSCAASGITFYINAMGWYRQPPGKERALVAVIDSRGSSTFYADSVKGRFTISRHNAKNSVYLQMNSLKPEYTAVYYCAAEPDTYWYTYDYWGQRTQVTVSS | low polyreactivity |
| QVQLVESGGGLVQAGGSLRLSCAASGSIFSRYAMGWYIQAPGKERELVAAISTGGGRTYYADSVKGRFTISRDNAKNTVYLKMNSLKPEDTAVYYCAAPQQQSWTYDGRYGYWGQGTQVTVSS | high polyreactivity |

| Sequence | polyreactivity (PSR sort gate) |
| --- | --- |
| QDQLVESGGGLVQAGGSLRLSCAASGSIFVQYAMGWYRQAPGKERELVATISSSGGSTYYADSVKGRFTISRDNAKNTVYLQMNCLKPEDTAVYYCAADWTLDPSYGYYADDYWGQGTQVTVSS | low polyreactivity |
| QVQLVESGGGLVHAGGSLRLSCDASGLKFRAYDMGRYRQAPGKERELVAAITSSSGSTYYADSVKGRFTISRDNAKNTVYLQMNSLKPEDTSVYYCNAYSTFGWYDYWGQGTQVTVSS | low polyreactivity |
| QVQLVESGGGLVQAGGSLRLICAASGFIFDTYTMGWYRQAPGKERELVAAISRSGASTYYADSVKGRFTISRDNAKNTVYLQMNSLKPEDTAVYYCATVYYPSYRGGYDYWGQGTQVTVSS | high polyreactivity |
| QVQLVESGGGLVQAGGSLRLSCAASASTVSRYAMGWYRQAPGKEREVVAGISWSGGNTYSADSVKGRFTISRDNAKNTVYLQMNSLKPEDTAVYYCAADFLDYWGVYGWAEYEYWGQGTQVTVSS | low polyreactivity |
| QVQLVESGGGLVQAGGILRLSCAASGRIFHRYTMGWYRQAPGKEREFVAAITTRAGSTYYADSVKGRFTISRDNAKYTVYLQMNSLKPEDTAVYYCNIRRHSLFGGTTTRYDYWGQGTQVTVSS | high polyreactivity |
| QVQLVESGGGLVQAGGSLRLSCAASGFTISVYVMGWYRQAPGKERELVAAISSSGGSTYYADSVKGRFTISRDNAKNTVYLQMNSLKPEDTAVYYCNAAGYWSYAYYWGQGTQVTVSS | high polyreactivity |
| QVQLGESGGGLVQAGGSLRLCCAASGRIFVRYTRGWYRQAPGKERELVAAIDQRGGSTYYADSVKGRFTISRDNANNTVSLQLNSLKPEDTAVYYCARVASRTRPGYGYWGQGTQVTVSS | low polyreactivity |
| QVQLVESGGGLVQAGGSLRLSCAASGLIFRPYAMGGYRQAPGKARELVAAITSGGSTDYADSLKGRFTISRDNAKNTVYLQMNSLNPEDTAVFYCNADFYPHDGYPWQGDYDYWGQGTQVTVSS | low polyreactivity |
| QVQLVESGGRLVQAGGSLRLSCAASGSTFSRNARGWNRQAPGKERELVAAISRSSSRTYYADSVKGRFTISRDNAKNTVYLQMNSLKPEDTAVYYCAADGYVWTPYLYDYWGQGTQVTVSS | high polyreactivity |
| QVQLVESGGGLVQAGGSLSLSCAASGSIFGIYAMGWYRQAAGKDRELVATINSRGTTNYADSVKGRFTISRYNAKNTVYLQMNSLKPEDTAVYYCAARFSTYRGKLKGYEYWGQGTQVTVSS | high polyreactivity |
| QDQLVESWGGLVQAGGSLRLSCASSGITVYGYTMGWYRQAPGKERELVAGISRGGSTYYADSVKGRFTISRDNAKNTVYLQINSLKPEDTAVYYCAVESFYRHASLYDYWGQGTQVTVSS | high polyreactivity |
| QVQLVESGGGLVQAGGSLRLSCAASGSLFGANAMGWYRQAPGKERELVAAISSNGDDTYADSVKGRFTISRDNAKNTVYLQMNSLKPEDTAVYYCNKRPWWWGGDDYWGQGTQVTVSS | low polyreactivity |
| QVQLVESGGGFVQAGGSLRLSCAASGSIFGSYAMGWYRQAAGKERELVPDISSGGSTNYADSVKGRFTISRDNAKYTVYLQMNSLKPEDTAVYYCNADDPAGYLYWWGSWLESDYWGQGTQVTVSS | low polyreactivity |
| QGQRVESGGGLVQAGGSLRISCAASGRTVGRYVMGWYRQEPGKERELVARIRGSTTSTYYADSVKGRFTISRDNAKNTVYLQMNSLKAEDTAVYYCAASYSPFASSYSYDYWGQGTQVTVSS | high polyreactivity |
| QVQHVESGGGLVQAGGSLRLSCAASGLIFARNAMVWYRQAPGKERELVAAISSSGNTYADSVKGRFTISRDNAKNTVYLQMNSLKPEDTAVFYCAADYVRWGQRKRSRYYYWGHGTQVTVSS | high polyreactivity |
| QVQLVESGGGLVQAGGSLRLSCAASGRTFYPNTMGWYRQAPGKERELVATITRSGGNTYADSVKGRFTISRDNAKNTVYLQMNSLKREDTAVYYCNADQRRSYWLVSQRYDYWGQGTQVTVSS | low polyreactivity |
| QVQLVESGGGLVQAGGSLRLSCAASGRTFYIYAMGWYRQAPGKERELVAAITSVGSTNYADSVKGRFTISRDNAKNTVYLQMNSLKQEVTAVYYCAAESTEGTSGDYDYWGQGTQVTVSS | low polyreactivity |
| QVQLVESWGGLVQAGGSLRLSCAASGSIFGENAMGWYREAPRKEMELVAAITSGGSTDYADSVKGRFTISRDNAKNTVYLQMNSPKVEDTAVYYCAASGRVGPGYCYDSWGQGTQVTVSS | low polyreactivity |
| QVQLVESGGGLVQAGGSLRISCAASGFIFQYNTMGWYRQAPGKERELVAVITRTGSTNYADSVKGRFTISRDNAKNTVYLQMNSLKPEDTAVYFCATSFYSRPRKARYYYWGQGTQVTVSS | high polyreactivity |
| QVQLVESGGGLVQAGGRLRLSCAASGSTFGINAMGWYRQAPGKERELVAAITSTGRTYYADSVKGRFTISRDNAKNTVYLQMNSLKPEDTAVYYCAAVWRYKGLLLPSYYYWGQGTQVTVSS | high polyreactivity |
| QVQLVESGGGLVQAGGSLRLSCAASGSTYYRYTMGSYRQAPGKERELLAAITSGGGTDYADSVKGRFTISRDNAKNTVYLQMNSLKPEDTAVYYCAAEGSWYSYPDYDYWGQGTQVTVSS | low polyreactivity |
